Here are results for 1 molecule from patent US20240002535A1 (Merck Sharp & Dohme, published 2024).

Assay [1] has as its target T1, human arginase 1 (hArg1), trimeric (human, UniProt P05089 1-322).
T1 construct: Natural homotrimer; It carries two Mn ions in each active site; also called Human Arg1 trimer; trimeric hArg1
T1 sequence: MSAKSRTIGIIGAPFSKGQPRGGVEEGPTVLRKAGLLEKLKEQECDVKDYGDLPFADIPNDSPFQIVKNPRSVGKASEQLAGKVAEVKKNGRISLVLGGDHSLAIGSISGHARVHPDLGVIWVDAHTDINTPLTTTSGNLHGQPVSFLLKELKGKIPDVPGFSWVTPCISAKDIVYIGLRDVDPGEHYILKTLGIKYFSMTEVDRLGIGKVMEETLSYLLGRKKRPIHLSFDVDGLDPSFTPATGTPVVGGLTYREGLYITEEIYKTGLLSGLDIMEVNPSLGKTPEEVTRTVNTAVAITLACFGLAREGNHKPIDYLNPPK
Put plainly: isothermal titration calorimetry: hArg1 trimer (100 µM, syringe) titrated into mAb4 mouse/human chimera (10 µM, cell) at 25 °C. The procedure:
(§1) Isothermal titration calorimetry (ITC) was conducted using a MicroCal PEAQ-ITC Automated (Malvern Inc, Westborough, MA) to determine the stoichiometry and thermodynamics properties of the hArg1:mAb interaction. […] Arginase (100 μM) in the ITC syringe was titrated into the antibody (10 μM) in the ITC cell at 25° C. Reference power was set to 10 μcal/sec with initial delay of 60 seconds and stirring speed of 750 rpm. Injection volume was 0.4 μL for the first injection and 4 μL for subsequent injections. Injection duration was 0.8 seconds for the first injection and 6 seconds for subsequent injections with 150 sec spacing. Baseline was adjusted using buffer-buffer titration. Data analysis was done using MicroCal PEAQ-ITC Analysis Software.
In general terms: Isothermal titration calorimetry measures the heat released or taken up as one component is titrated into another.

For assay [2], the target named is T1, human arginase 1 (hArg1), trimeric. Put plainly: ITC, hArg1 trimer (100 uM, syringe) titrated into the antibody (10 uM, cell) at 25 C. On the procedure:
as §1

B1: mAb4 (mouse/human chimera) (antibody, V domains shown)
VH: EVQLQQSGPVLVKPGASVKMSCKASEYTFTDYYMNWVKQSHGRSLEWIGVISPYNGGTTYNQKFKGKATLTVDKSSSTAYMELNSLTSEDSAVYYCVYDLYYFDYWGQGTTLTVSS
VL: NIVLTQSPATLSVTPGDSVSLSCRASQRISNDLHWYQQKSHESPRLLIKYASQSISGIPSRFSGSGSGTDFTLSINSVETEDFGMYFCQQSNSWPRTFGGGTKLEIK
In the case of B1, in assay [1], the “-TΔS” value was found to be 3 kcal/mol, the ΔG is -10.7 kcal/mol and the ΔH was -13.7 kcal/mol. For the same molecule, the “stoichiometry n (ITC)” value in assay [2] is 0.637.
